Assay results from patent publication US20250361280A1 (Protagonist Therapeutics, Inc., priority 2022, published 2025).
Each block holds one molecule with its values, some of them ahead of it.

What was measured:
[1] = biological target: T1, human ferroportin (Homo sapiens, UniProt Q9NP59); assay: FPN internalization assay (FPN activity assay), loss of ferroportin-GFP fluorescence; type: cell-based; details: Table 5 reference compounds; value in μM; read-out: Potency EC50
T1 sequence (Q9NP59 1-571): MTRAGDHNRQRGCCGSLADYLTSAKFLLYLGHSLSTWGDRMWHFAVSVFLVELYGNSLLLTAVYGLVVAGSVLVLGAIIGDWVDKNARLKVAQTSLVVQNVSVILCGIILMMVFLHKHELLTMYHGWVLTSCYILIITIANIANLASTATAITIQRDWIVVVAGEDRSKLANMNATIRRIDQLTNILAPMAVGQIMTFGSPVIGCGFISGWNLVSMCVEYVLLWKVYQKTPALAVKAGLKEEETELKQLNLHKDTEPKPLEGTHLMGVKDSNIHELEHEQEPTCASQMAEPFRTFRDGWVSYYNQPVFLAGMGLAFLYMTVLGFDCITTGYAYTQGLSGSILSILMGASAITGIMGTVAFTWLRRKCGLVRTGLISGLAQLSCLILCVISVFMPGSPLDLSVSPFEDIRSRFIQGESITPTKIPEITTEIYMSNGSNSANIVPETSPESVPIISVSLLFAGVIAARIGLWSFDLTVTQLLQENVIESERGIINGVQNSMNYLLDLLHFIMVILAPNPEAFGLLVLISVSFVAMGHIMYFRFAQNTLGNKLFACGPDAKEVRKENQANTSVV

[2] = biological target: T2, human ferroportin (SLC40A1) fused in frame with the GFP protein, stably expressed in HEK293 cells (human) (UniProt Q9NP59); assay: cell-based or functional assay
T2 sequence (looked up): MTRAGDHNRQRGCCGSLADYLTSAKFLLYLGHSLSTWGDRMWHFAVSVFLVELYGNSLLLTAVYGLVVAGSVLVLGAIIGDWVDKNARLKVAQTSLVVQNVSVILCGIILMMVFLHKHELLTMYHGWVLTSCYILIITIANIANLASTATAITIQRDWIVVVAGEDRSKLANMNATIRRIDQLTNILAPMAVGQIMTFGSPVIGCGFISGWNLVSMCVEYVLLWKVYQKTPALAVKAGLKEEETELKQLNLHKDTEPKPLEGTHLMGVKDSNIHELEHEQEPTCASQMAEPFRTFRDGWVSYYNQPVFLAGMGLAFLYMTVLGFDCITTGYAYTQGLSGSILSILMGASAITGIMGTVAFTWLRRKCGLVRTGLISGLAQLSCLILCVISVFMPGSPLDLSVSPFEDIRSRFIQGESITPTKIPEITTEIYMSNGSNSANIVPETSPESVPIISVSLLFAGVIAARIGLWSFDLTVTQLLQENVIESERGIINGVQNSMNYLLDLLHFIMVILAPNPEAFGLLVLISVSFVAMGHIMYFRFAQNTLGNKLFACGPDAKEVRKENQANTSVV

EC50 [1]: > 10 µM
Molecule: CC[C@@H](C)[C@@H](NC(=O)[C@H](N)Cc1ccccc1)C(=O)N[C@H](CS)C(=O)N[C@@H](C(=O)N1CCC[C@@H]1C(=O)N[C@H](Cc1ccccc1)C(=O)N[C@H](Cc1c[nH]cn1)C(=O)N[C@@H](C(=O)N[C@H](CC(=O)O)C(N)=O)[C@H](C)O)[C@H](C)CC [RI-Mini Hepcidin, Hy-DPhe-DIle-DCys-DIle-DPro-DPhe-DHis-DThr-DAsp-NH2]

Potency EC50 (nM) [2]: > 10000 nM
Molecule: RI-Mini Hepcidin, Hy-DPhe-DIle-DCys-DIle-DPro-DPhe-DHis-DThr-DAsp-NH2 (peptide)

Potency EC50 [2]: 0.712 µM
B1: Mini-Hepcidin 1-9, Hy-…-NH2 (peptide, from a related filing)
peptide: H-DTHFPICIF-NH2
